The record followed here is patent US20250296984A1 (THELPER, published 2025).

The target in one assay is T1, Bio-Peptide-1 (human cytomegalovirus (4N variant, e.g. …)).
T1 construct: also called US28 ECD3 genotype 4N peptide
T1 peptide: Biotin-TKKNNQCMTDYDYLEVS
The assay is described as follows: ELISA, Bio-Peptide-1 coated. Background: An ELISA detects its analyte on a solid surface through an enzyme-linked reagent.

Assay [1] addresses T2, US28 of HCMV strain DB fused to a C-terminal 6His tag (human cytomegalovirus (HCMV) strain DB, UniProt P69332 1-354).
T2 chain: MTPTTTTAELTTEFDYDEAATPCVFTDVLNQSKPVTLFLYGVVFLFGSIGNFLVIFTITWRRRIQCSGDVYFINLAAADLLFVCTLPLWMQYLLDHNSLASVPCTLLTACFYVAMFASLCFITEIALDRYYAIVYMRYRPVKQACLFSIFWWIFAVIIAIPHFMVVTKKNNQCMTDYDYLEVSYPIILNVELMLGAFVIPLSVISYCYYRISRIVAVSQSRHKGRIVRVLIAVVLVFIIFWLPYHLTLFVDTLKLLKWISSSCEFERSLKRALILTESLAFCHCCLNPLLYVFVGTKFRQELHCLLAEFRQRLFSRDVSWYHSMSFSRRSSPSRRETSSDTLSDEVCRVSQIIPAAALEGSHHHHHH
The assay is described as follows: flow cytometry, CHO-US28 against control CHO cells. (In flow cytometry, cells or beads pass a laser one at a time.)

The target of assay [2] is T2, US28 of HCMV strain DB fused to a …. Description: flow cytometry, CHO-US28 against control CHO cells.
The target in assay [3] is T3, US28 of HCMV strain VHL/E fused to a C-terminal 6His tag (human cytomegalovirus (HCMV) strain …, UniProt P69332 1-354).
T3 construct: also called VHL/E-encoded US28
T3 chain: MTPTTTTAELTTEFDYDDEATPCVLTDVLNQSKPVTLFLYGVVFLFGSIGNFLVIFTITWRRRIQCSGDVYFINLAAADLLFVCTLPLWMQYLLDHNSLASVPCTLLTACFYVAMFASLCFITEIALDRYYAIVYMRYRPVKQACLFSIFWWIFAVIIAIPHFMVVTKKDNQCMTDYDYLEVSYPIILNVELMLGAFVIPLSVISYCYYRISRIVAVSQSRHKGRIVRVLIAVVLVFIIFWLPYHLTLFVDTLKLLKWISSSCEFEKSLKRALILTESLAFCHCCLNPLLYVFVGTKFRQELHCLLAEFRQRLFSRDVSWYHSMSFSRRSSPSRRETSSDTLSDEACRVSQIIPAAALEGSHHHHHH
The assay is described as follows: flow cytometry, transfected HEK Phoenix cells, 6.76 nM.

For assay [4], the target named is T4, US28 of HCMV strain TB40/E fused to a C-terminal 6His tag (human cytomegalovirus (HCMV) strain …, UniProt P69332 1-354).
T4 construct: also called TB40/E form of US28
T4 chain: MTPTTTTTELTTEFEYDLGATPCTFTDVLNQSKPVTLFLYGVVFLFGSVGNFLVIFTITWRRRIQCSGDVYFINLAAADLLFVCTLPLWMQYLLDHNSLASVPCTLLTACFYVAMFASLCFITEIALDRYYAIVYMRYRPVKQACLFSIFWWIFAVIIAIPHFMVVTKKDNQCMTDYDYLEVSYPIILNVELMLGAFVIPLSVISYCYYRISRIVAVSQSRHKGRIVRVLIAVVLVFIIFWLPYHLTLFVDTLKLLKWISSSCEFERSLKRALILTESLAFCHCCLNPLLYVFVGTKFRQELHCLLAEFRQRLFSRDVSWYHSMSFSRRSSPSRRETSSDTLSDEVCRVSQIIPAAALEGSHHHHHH
The assay is described as above.

Assay [5] addresses T2, US28 of HCMV strain DB fused to a …. Described as above.
The target of assay [6] is T5, US28 of HCMV strain Merlin fused to a C-terminal 6His tag (human cytomegalovirus (HCMV) strain …, UniProt F5HF62 1-354).
T5 construct: also called Merlin-encoded US28
T5 sequence: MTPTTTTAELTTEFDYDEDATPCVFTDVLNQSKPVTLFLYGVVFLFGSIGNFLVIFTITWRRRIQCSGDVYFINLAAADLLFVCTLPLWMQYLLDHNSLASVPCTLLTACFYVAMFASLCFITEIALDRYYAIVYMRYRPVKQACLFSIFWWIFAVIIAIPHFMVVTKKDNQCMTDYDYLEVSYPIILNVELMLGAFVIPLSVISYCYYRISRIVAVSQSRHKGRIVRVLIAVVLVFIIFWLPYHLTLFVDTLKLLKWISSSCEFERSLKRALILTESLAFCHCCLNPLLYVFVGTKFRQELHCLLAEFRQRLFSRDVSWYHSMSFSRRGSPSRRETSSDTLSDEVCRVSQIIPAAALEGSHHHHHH
The assay is described as above.

For assay [7], the target named is T3, US28 of HCMV strain VHL/E fused to a …. Description: flow cytometry, processed data of FIG. 33; reference.
In assay [8] the target is T4, US28 of HCMV strain TB40/E fused to a …. Description: flow cytometry, processed data of FIG. 33.
Assay [9] deals with T2, US28 of HCMV strain DB fused to a …. The assay is described as follows: flow cytometry, processed data of FIG. 33.
For assay [10], the target named is T5, US28 of HCMV strain Merlin fused to a …. The assay is described as follows: flow cytometry, processed data of FIG. 33.

Read-outs that look alike come from different tables or passages of the source. Where no end group is shown, it is not given here. The star is where a group is joined. Biotin = O=C1N[C@H]2[C@H](CS[C@H]2CCCCC(=O)*)N1

B1: US28-14-4E4-1E8 (antibody, mouse IgG1, kappa, V domains shown)
VH: EVKLVESGGDLVKPGGSLKLSCAASGFTFSSYAMSWVRQTPEKRLEWVASISSGGRTYYPDSVKGRFTISRDNARNILYLQMSSLRSEDTAIYYCARGGTRHSYGNGFDYWGQGTTLTVSS
VL: QIVLSQSPTIMSASPGEKVTMTCSASSSVSYMHWYQQKSGTSPKRWIYDSSKLASGVPARFSGSGSGTSYSLTISSMEAEDAATYYCQQWTSNPPITFGAGTKLELKR
In the case of B1, the absorbance with Bio-Peptide-1 came out at 2.99. Moreover, the “binding specificity comparative to the specificity displayed by VUN100” value (“binding specificity comparative” for short) in assay [1] is 4.6 fold.

B2: US28-13-1C10-1G9 (antibody, mouse IgG1, kappa, V domains shown)
VH: EVKLVESGGGLVKPGGSLKLSCAASGFTFSSYAMSWVRQTPEKRLEWVASISSGGSTYYPDSVKGRFTISRDNARNILYLQMSSLRSEDTAMYYCARGGSTMITTGLGFAYWGQGTLVTVSA
VL: QIVLTQSPAIMSASPGEKVTMTCSASSSVSYMHWYQQKSGTSPKRWIYDTSKLASGVPARFSGSGSGTSYSLTISSMEAEDAATYYCQQWSSNPPLTFGAGTKLELKR
The molecule B2 registered an absorbance with Bio-Peptide-1 of 3.11.

B3: US28-13-1H3-1A10 (antibody, mouse IgG1, kappa, V domains shown)
VH: EVKLVESGGVLVKPGGSLKFSCAASGFTLSSHALSWVRQTPEKRLEWVASISSRGRTYYPDSVKGRFTVSRDNARNILYLQVSSLRSEDTAMYYCTRGGTHYSYGNGFDFWGQGTTLTVSS
VL: QIVLTQSPAIMSASPGEKVTMTCSVSSSVSYMHWYQQKSGTSPKRWIYDTSKLASGVPARFSGSGSGTSYSLTISTMEAEDAATYYCQQWSNNPPITFGAGTKLELKR
notes: also called 14-1H3-1A10
For B3, in the assay with Bio-Peptide-1, the absorbance is 3. In addition, in assay [1], the “binding specificity comparative” value worked out at 2.29 fold.

B4: US28-13-1C10-1C10 (antibody, mouse IgG1, kappa, V domains shown)
VH: EVKLVESGGVLVKPGGSLKFSCAASGFTFSSHALSWVRQTPEKRLEWVASISSRGRTYYPDSVKGRFTVSRDNARNILYLQVSSLRSEDTAMYYCTRGGTHYSYGNGFDFWGQGTTLTVSS
VL: QIVLTQSPAIMSASPGEKVTMTCSVSSSVSYMHWYQQKSGTSPKRWIYDTSKLASGVPARFSGSGSGTSYSLTISTMEAEDAATYYCQQWSNNPPITFGAGTKLELKR
In the assay with Bio-Peptide-1, B4 had an absorbance of 3.11. Besides, in assay [1], the “binding specificity comparative” value came to 1.74 fold.

B5: US28-4-7B1F3 (antibody, mouse IgG1, kappa, V domains shown)
VH: EVQLQQSGAELAKPGASVKMSCKASGYTFTNYWMHWVKQRPGQGLEWIGYVNPRTGYTEYNQKFKDKATLTADKSSRTAYMQLSSLTSEDSAVYSCARILNGTGFAYWGQGTLVTVSA
VL: DIVLTQSPSSLTVSVGEKFTMSCKSSQSLLYSSNQKNYLAWYQQKPGQSPKLLIYWASTRESGVPDRFTGSGSGTDFTLAISSVKPEDLAIYYCQQYYSFPLTFGAGTKLEIKR
notes: also called mouse 7B1F3; mouse7B1F3
Consider B5, for which, in [2], the “binding specificity comparative” value is 1.67 fold.

B6: 7B1F3-Myc (antibody, V domains shown)
VH: EVQLQQSGAELAKPGASVKMSCKASGYTFTNYWMHWVKQRPGQGLEWIGYVNPRTGYTEYNQKFKDKATLTADKSSRTAYMQLSSLTSEDSAVYSCARILNGTGFAYWGQGTLVTVSA
VL: DIVLTQSPSSLTVSVGEKFTMSCKSSQSLLYSSNQKNYLAWYQQKPGQSPKLLIYWASTRESGVPDRFTGSGSGTDFTLAISSVKPEDLAIYYCQQYYSFPLTFGAGTKLEIK
On to B6, for which the “binding value (Preliminary Binding Data)” value in assay [3] came out at 0.37; in assay [4], 0.42; in assay [5], 0.91; in assay [6], 0.45. Moreover, the “variation in binding relative to US28 as encoded by VHL/E” value (from here on “variation in binding relative to US28”) stood at 0 in assay [7], 0.14 in assay [8], 0.64 in assay [9] and 0.21 in assay [10].

B7: US28-4-4H3C3 (antibody, mouse IgG1, kappa, V domains shown)
VH: QVQLQQSGAELAKPGASVKMSCKASGYTFTSYWMHWVKQRPGQGLEWIGYINPSTGYAEYNQKFKDKATLTADKSSSTAYMQLSSLTSEDSAVYYCARLRFGSSGFAYWGQGTLVTVSS
VL: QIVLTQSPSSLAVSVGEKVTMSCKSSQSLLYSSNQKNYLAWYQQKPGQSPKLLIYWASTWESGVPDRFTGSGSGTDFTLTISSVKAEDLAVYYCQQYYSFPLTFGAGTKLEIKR
For B7, the “binding specificity comparative” value in assay [2] was determined as 3.35 fold.

B8: 4H3C3-Myc (antibody, V domains shown)
VH: QVQLQQSGAELAKPGASVKMSCKASGYTFTSYWMHWVKQRPGQGLEWIGYINPSTGYAEYNQKFKDKATLTADKSSSTAYMQLSSLTSEDSAVYYCARLRFGSSGFAYWGQGTLVTVSS
VL: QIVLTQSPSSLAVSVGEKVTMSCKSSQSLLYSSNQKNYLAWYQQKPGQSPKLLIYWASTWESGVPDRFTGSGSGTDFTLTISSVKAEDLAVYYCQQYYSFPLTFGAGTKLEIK
As for B8, the “binding value (Preliminary Binding Data)” value in [3] amounted to 0.16; in assay [4] it was 0.14; in assay [5] it was 0.37; in assay [6] it was 0.12. Moreover, the “variation in binding relative to US28” value was 0 in assay [7], -0.16 in assay [8], 0.59 in assay [9] and -0.38 in assay [10].

B9: US28-4-2F5B11 (antibody, mouse IgG1, kappa, V domains shown)
VH: EVQLQESGAELAKPGASVKMSCKASGYTFSSYWIHWIKQRPGQGLEWIGYINPNTAYTEFNQKFMDKATLTADKSSSTAYMQLTSLTSEDSAVYYCARLRSDRTGFAYWGQGTLVTVSA
VL: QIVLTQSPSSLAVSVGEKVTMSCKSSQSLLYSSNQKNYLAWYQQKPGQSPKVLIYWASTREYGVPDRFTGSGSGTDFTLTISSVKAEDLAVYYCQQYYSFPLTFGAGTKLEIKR
For B9, the “binding specificity comparative” value in [2] is 4.21 fold.

B10: 2F5B11-Myc (antibody, V domains shown)
VH: EVQLQESGAELAKPGASVKMSCKASGYTFSSYWIHWIKQRPGQGLEWIGYINPNTAYTEFNQKFMDKATLTADKSSSTAYMQLTSLTSEDSAVYYCARLRSDRTGFAYWGQGTLVTVSA
VL: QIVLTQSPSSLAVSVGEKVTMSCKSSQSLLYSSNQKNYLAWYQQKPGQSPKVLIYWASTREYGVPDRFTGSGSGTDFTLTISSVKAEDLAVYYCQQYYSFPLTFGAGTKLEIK
With B10, the “binding value (Preliminary Binding Data)” value stood at 1.08 in [3], 0.57 in assay [4], 1.04 in assay [5] and 1.09 in assay [6]. In addition, the “variation in binding relative to US28” value in assay [7] is 0; in assay [8] it was -0.92; in assay [9], -0.04; in assay [10] it was 0.01.
